Measured values taken from patent publication US20190169256A1.
Each block holds one substance with its values, some of them ahead of it.

Assays:
Test in all cases: cell-based or functional assay
[1] = biological target: Salmon tac3 receptor (salmon)
[2] = biological target: Tilapia tac3 receptor (tilapia)
[3] = biological target: Zebrafish tac3 receptor (zebrafish)

EC50 of SRE-Luciferase activity (COS7 cells expressing slNKB receptor) [1]: 1.03 nM
Substance: Salmon NKB (slNKB) (peptide)

luciferase activity (CRE-Luc reporter, COS-7 cells transfected with tilapia tac3 receptor) [2]: 1.8 fold
luciferase activity (CRE-Luc, COS-7 cells transfected with salmon tac3r) [1]: 1.8 fold
Substance: tilapia NKB (peptide)

CRE-LUC (COS-7 cells transfected with zebrafish tac3 receptor) [3]: > 3 fold
Substance: zebrafish NKB (peptide)
